Data on seven molecules can be found in US20020123614A1 (published 2002).

Experiment [1] deals with T1, recombinant ICAM-2 Fc chimera (UniProt P13598 25-223, limits assumed).
T1 construct: amine-coupled to the BIAcore chip; not shown: Fc part, not described
T1 sequence (looked up): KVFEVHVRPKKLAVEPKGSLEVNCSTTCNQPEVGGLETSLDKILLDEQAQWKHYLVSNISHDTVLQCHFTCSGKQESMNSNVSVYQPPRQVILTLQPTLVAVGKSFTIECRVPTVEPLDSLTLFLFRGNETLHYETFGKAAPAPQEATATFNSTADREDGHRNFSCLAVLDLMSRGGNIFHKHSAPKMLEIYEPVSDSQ
Description: BIAcore, 1 mM MgCl2. On the procedure:
(§1) The recombinant proteins were purified from inclusion bodies by solubilization of inclusion bodies in 6M guanidine HCl and were refolded by dilution in the presence of 0.1 mM Cu²⁺/phenanthrolin to enhance formation of disulfide bonds. Protein was concentrated by ammonium sulfate precipitation, dialyzed, and purified over a monoQ ion-exchange column. […] The recombinant proteins were then purified by gel filtration and concentrated by Centriprep. For BIAcore™ analysis, recombinant ICAM-1, ICAM-2 and ICAM-3 Fc chimeras were immobilized on the BIAcore™ sensor chip by an amine-coupling method. Recombinant αL I-domains were flowed in, and BIAcore™ assays were performed with Tris-buffered saline supplemented with 1 mM MgCl₂ or 2 mM EDTA, at a flow rate of 10 μl/minute at 25° C.

Experiment [2] concerns the target T2, recombinant ICAM-3 Fc chimera (UniProt P32942 30-485, limits assumed).
T2 construct: amine-coupled to the BIAcore chip; not shown: Fc part, not described
T2 sequence (looked up): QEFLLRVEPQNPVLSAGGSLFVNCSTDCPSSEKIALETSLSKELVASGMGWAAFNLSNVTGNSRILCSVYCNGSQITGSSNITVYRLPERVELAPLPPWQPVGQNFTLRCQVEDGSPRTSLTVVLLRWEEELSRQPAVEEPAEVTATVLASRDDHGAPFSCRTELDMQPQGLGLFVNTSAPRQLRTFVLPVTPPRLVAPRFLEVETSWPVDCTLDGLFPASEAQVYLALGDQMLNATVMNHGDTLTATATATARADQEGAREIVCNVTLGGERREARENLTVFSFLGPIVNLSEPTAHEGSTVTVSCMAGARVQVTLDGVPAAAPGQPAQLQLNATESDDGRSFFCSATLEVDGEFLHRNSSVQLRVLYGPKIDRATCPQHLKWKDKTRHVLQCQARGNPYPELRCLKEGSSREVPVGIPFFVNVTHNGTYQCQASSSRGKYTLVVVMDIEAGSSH
Description: BIAcore, 1 mM MgCl2. On the procedure: as §1

In experiment [3] the target is ICAM-1 (BIAcore, another study; construct not stated) (UniProt P05362 28-480, limits assumed). Briefly: BIAcore, another study. For orientation: Surface plasmon resonance follows binding to a sensor surface in real time, without labels.
In experiment [4] the target is T3, recombinant ICAM-1 Fc chimera (UniProt P05362 28-480, limits assumed).
T3 construct: amine-coupled to the BIAcore chip; not shown: Fc part, not described
Description: BIAcore; dissociation phase, 1:1 model. The method, then: (§2) Recombinant soluble αL I-domains were expressed in E. coli, refolded and purified. Kinetics of binding of the I-domains to ICAM-1 was measured by BIAcore ™ instruments. Kinetics was analyzed BIAevaluation ™ software. KD was calculated by Scatchard plots using data at steady states. Koff was obtained by curve fining of the dissociation phase using 1:1 binding model. Kon was calculated by Koff/KD.

The target of experiment [5] is T3, recombinant ICAM-1 Fc chimera. Briefly: BIAcore; Kon calculated by Koff/KD. The method, then:
as §2

Experiment [6] has the same target. Briefly: BIAcore; Scatchard plots at steady state. The method, then: as §2
The target in experiment [7] is T1, recombinant ICAM-2 Fc chimera. Briefly: BIAcore, ICAM Fc chimera immobilized, 1:1 model. The method, then: as §1
Experiment [8] concerns the target T3, recombinant ICAM-1 Fc chimera. Description: BIAcore, ICAM Fc chimera immobilized, 1:1 model. The method, then: as §1
Experiment [9] deals with T2, recombinant ICAM-3 Fc chimera. Briefly: BIAcore, ICAM Fc chimera immobilized, 1:1 model. On the procedure: as §1
In experiment [10] the target is T4, murine ICAM-1 (murine, UniProt P13597 28-485, limits assumed).
T4 construct: on EL-4 cells in the aggregation assay
Briefly: BIAcore (not described further).

One may read the Kd as a measure of binding affinity in units of concentration. For orientation: koff means a measure of how fast the partners let go of each other. For orientation: kon means the second-order rate constant of association.

T3 sequence (P05362 28-480 limits assumed, change not shown): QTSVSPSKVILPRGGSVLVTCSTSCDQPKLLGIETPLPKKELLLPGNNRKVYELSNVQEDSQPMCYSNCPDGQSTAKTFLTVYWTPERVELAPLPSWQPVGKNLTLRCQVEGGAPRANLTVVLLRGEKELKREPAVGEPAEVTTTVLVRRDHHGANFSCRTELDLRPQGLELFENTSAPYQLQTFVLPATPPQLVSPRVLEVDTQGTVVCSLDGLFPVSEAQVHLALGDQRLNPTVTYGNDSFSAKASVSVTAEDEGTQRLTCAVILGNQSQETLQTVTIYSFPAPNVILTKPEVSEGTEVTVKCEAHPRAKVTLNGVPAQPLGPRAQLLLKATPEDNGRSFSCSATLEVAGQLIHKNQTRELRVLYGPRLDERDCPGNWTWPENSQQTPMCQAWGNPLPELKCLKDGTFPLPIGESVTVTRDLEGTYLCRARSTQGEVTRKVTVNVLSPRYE
ICAM-1 (BIAcore, another study; construct not stated), sequence (P05362 28-480 limits assumed): as the sequence (P05362 28-480 limits assumed, change not shown) above
T4 sequence (P13597 28-485 limits assumed): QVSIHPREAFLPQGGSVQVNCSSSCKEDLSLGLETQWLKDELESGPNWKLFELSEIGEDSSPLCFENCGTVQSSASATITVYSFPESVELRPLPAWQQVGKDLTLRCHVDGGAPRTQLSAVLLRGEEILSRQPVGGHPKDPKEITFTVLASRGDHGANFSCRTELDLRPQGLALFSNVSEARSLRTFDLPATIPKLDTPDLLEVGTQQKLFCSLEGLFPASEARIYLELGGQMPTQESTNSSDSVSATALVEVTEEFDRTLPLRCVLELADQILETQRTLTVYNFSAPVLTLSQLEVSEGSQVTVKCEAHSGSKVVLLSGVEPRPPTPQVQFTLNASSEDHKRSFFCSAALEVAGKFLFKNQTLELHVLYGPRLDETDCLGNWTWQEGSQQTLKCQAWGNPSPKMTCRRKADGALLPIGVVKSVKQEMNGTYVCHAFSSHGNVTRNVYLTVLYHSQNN

B1: recombinant soluble wild-type αL I-domain (G128-Y307), E. coli (receptor)
chain: GNVDLVFLFDGSMSLQPDEFQKILDFMKDVMKKLSNTSYQFAAVQFSTSYKTEFDFSDYVKRKDPDALLKHVKHMLLLTNTFGAINYVATEVFREELGARPDATKVLIIITDGEATDSGNIDAAKDIIRYIIGIGKHFQTKESQETLHKFASKPASEFVKILDTFEKLKDLFTELQKKIY
notes: numbers as printed, probably mature αL numbering; also called soluble wild-type I domain; wild-type I-domain
B1: the binding result in experiment [1] and in [2] was “no binding” throughout.

B2: recombinant soluble αL I-domain stabilized in the open conformation (K287C/K294C), G128-Y307, E. coli (receptor)
chain: GNVDLVFLFDGSMSLQPDEFQKILDFMKDVMKKLSNTSYQFAAVQFSTSYKTEFDFSDYVKRKDPDALLKHVKHMLLLTNTFGAINYVATEVFREELGARPDATKVLIIITDGEATDSGNIDAAKDIIRYIIGIGKHFQTKESQETLHKFASKPASEFVCILDTFECLKDLFTELQKKIY
modifications: introduced disulfide C287-C294
notes: numbers as printed, probably mature αL numbering; also called open I-domain; soluble open I-domain
B2: the Kd worked out at 0.2 µM in [3]; 0.18 µM in [6]; 0.513 µM in experiment [7]; 0.18 µM in experiment [8]; 3.94 µM in experiment [9]. Moreover, the off-rate (koff) in experiment [4] is 0.023 s⁻¹; in experiment [7], 0.0118 s⁻¹; in experiment [8], 0.023 s⁻¹; in experiment [9], 0.0749 s⁻¹. Moreover, the kon in experiment [5] was 128000 M⁻¹ s⁻¹; in experiment [7] it was 23000 M⁻¹ s⁻¹; in [8], 128000 M⁻¹ s⁻¹; in experiment [9] it was 19000 M⁻¹ s⁻¹. In addition, the binding result in [10] is on record as “binds”.

B3: recombinant soluble αL I-domain E284C/E301C (locked open) (receptor)
chain: GNVDLVFLFDGSMSLQPDEFQKILDFMKDVMKKLSNTSYQFAAVQFSTSYKTEFDFSDYVKRKDPDALLKHVKHMLLLTNTFGAINYVATEVFREELGARPDATKVLIIITDGEATDSGNIDAAKDIIRYIIGIGKHFQTKESQETLHKFASKPASCFVKILDTFEKLKDLFTCLQKKIY
As to B3, in experiment [4], the koff came out at 0.0459 s⁻¹. In addition, the kon in experiment [5] is 128000 M⁻¹ s⁻¹. In addition, the Kd in experiment [6] amounted to 0.36 µM.

B4: recombinant soluble αL I-domain L289C/K294C (locked closed) (receptor)
chain: GNVDLVFLFDGSMSLQPDEFQKILDFMKDVMKKLSNTSYQFAAVQFSTSYKTEFDFSDYVKRKDPDALLKHVKHMLLLTNTFGAINYVATEVFREELGARPDATKVLIIITDGEATDSGNIDAAKDIIRYIIGIGKHFQTKESQETLHKFASKPASEFVKICDTFECLKDLFTELQKKIY
With B4, the koff in experiment [4] is 2.84 s⁻¹. Further, the kon in [5] was 2110 M⁻¹ s⁻¹. Further, the Kd in [6] is 1760 µM.

B5: recombinant soluble αL I-domain K160C/F299C (locked open, intermediate affinity) (receptor)
chain: GNVDLVFLFDGSMSLQPDEFQKILDFMKDVMKCLSNTSYQFAAVQFSTSYKTEFDFSDYVKRKDPDALLKHVKHMLLLTNTFGAINYVATEVFREELGARPDATKVLIIITDGEATDSGNIDAAKDIIRYIIGIGKHFQTKESQETLHKFASKPASEFVKILDTFEKLKDLCTELQKKIY
As for B5, in [4], the koff turned out to be 0.67 s⁻¹. For the same molecule, the kon in experiment [5] was 153000 M⁻¹ s⁻¹. In addition, the Kd in experiment [6] was 4.39 µM.

B6: recombinant soluble αL I-domain L161C/T300C (locked open, intermediate affinity) (receptor)
chain: GNVDLVFLFDGSMSLQPDEFQKILDFMKDVMKKCSNTSYQFAAVQFSTSYKTEFDFSDYVKRKDPDALLKHVKHMLLLTNTFGAINYVATEVFREELGARPDATKVLIIITDGEATDSGNIDAAKDIIRYIIGIGKHFQTKESQETLHKFASKPASEFVKILDTFEKLKDLFCELQKKIY
For the molecule B6, the koff in experiment [4] came to 0.65 s⁻¹. The kon in experiment [5] is 135000 M⁻¹ s⁻¹. The dissociation constant (Kd) in experiment [6] was 4.8 µM.

B7: recombinant soluble αL I-domain L161C/F299C (locked open, intermediate affinity) (receptor)
chain: GNVDLVFLFDGSMSLQPDEFQKILDFMKDVMKKCSNTSYQFAAVQFSTSYKTEFDFSDYVKRKDPDALLKHVKHMLLLTNTFGAINYVATEVFREELGARPDATKVLIIITDGEATDSGNIDAAKDIIRYIIGIGKHFQTKESQETLHKFASKPASEFVKILDTFEKLKDLCTELQKKIY
Turning to B7, in experiment [4], the koff is 0.513 s⁻¹. Further, the kon in [5] was 136000 M⁻¹ s⁻¹. Further, in experiment [6], the Kd worked out at 3.76 µM.
